Key:
Experiment in all cases: Multiplex Interactome Assay (MPIA; bead-based, Luminex FLEXMAP 3D); runs D1-D4; baits ECD-hFc-ST3 on dimeric SC3 (SpyCatcher003-Cys) MagPlex beads, pooled; one prey a well: ECD-hFc-ST3 on 60-mer SC3-mi3 nanoparticles with GFP-V5-HA-ST3 adapter, 300 nM ECD where possible; 2 h at room temperature, 1% casein in 1x PBS; mouse anti-V5 and PE goat anti-mouse; read-out MFI; hit = seen in three of four runs
PVR ECD-hFc-ST3 (human) = PVR ECD-hFc-ST3 (human) (UniProt P15151)
WFIKKN2-hFc-ST3 (human) = WFIKKN2-hFc-ST3 (human) (UniProt Q8TEU8)
IGFBPL1-hFc-ST3 = target: T1, IGFBPL1-hFc-ST3 (human, UniProt Q8WX77 26-278); details: both partners purified
T1 construct: Dimeric hFc-ST3 fusion behind the influenza HA signal peptide; prey on SC3-mi3 nanoparticles, bait on SC3 beads; source: Expi293, transfected, purified from supernatant (Ni-NTA / HisTrapFF); not shown: Fc (human IgG1, DAPA mutations), C-terminal, kept; FLAG, C-terminal, kept; SpyTag003, C-terminal, kept
T1 sequence (looked up): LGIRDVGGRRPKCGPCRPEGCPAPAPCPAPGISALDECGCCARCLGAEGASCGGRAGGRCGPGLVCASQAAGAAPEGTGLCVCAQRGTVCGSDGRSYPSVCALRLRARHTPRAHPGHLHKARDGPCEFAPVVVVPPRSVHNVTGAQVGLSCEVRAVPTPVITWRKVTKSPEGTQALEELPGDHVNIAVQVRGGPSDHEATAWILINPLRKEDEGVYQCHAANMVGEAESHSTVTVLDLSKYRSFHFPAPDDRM

AXL ECD-hFc-ST3 = target: T2, AXL ECD-hFc-ST3 (human, UniProt P30530 26-451); details: both partners purified
T2 construct: AXL (tyrosine-protein kinase receptor UFO), human, extracellular domain; Dimeric ECD-hFc-ST3 fusion behind the influenza HA signal peptide; prey on SC3-mi3 nanoparticles, bait on SC3 beads; source: Expi293, transfected, purified from supernatant (Ni-NTA / HisTrapFF); not shown: Fc (human IgG1, DAPA mutations), C-terminal, kept; FLAG, C-terminal, kept; SpyTag003, C-terminal, kept
T2 sequence (looked up): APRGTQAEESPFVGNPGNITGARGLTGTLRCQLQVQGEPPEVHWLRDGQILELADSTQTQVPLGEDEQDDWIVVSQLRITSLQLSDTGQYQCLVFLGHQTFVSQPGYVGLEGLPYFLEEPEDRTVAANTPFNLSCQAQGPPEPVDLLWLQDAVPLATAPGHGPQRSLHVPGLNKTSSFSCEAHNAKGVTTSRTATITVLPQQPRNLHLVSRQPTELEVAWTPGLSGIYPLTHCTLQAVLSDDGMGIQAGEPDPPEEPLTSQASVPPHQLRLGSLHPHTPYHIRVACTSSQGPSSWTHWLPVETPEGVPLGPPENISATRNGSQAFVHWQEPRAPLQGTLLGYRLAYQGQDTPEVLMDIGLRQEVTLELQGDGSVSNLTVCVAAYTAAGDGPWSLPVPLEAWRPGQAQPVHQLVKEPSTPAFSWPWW

IL6R ECD-hFc-ST3 = target: T3, IL6R ECD-hFc-ST3 (human, UniProt P08887 20-365); details: both partners purified
T3 construct: IL6R (interleukin-6 receptor subunit alpha), human, extracellular domain; Dimeric ECD-hFc-ST3 fusion behind the influenza HA signal peptide; prey on SC3-mi3 nanoparticles, bait on SC3 beads; source: Expi293, transfected, purified from supernatant (Ni-NTA / HisTrapFF); not shown: Fc (human IgG1, DAPA mutations), C-terminal, kept; FLAG, C-terminal, kept; SpyTag003, C-terminal, kept
T3 sequence (looked up): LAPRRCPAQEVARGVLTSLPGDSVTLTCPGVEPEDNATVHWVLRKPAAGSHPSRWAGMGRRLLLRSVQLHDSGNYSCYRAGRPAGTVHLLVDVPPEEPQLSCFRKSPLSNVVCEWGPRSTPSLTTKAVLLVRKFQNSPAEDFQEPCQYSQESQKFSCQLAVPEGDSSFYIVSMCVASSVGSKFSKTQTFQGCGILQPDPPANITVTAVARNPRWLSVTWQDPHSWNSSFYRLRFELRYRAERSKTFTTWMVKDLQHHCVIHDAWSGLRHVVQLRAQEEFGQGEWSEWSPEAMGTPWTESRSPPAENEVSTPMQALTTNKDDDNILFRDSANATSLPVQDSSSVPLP

[1] = target: PuncE11 ECD-hFc-ST3 (human) (UniProt Q8TDY8)

PVR ECD-hFc-ST3 (human), sequence (P15151 21-343): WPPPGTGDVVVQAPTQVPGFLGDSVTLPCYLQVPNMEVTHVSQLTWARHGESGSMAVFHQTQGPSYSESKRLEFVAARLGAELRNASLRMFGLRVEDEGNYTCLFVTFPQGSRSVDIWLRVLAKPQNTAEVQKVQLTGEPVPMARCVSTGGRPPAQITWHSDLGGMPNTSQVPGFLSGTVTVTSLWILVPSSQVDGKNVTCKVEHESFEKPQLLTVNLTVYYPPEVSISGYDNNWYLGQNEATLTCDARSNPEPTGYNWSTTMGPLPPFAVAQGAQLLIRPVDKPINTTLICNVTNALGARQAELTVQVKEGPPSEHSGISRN

With “KIR2DL5 ECD-hFc-ST3 (from UniProt Q8N109 22-238) (Fc fusion)” the MFI (PVR ECD-hFc-ST3 (human)) was 5360.

In the case of “PuncE11 ECD-hFc-ST3 (from UniProt Q8TDY8 25-957) (Fc fusion)”, the MFI (WFIKKN2-hFc-ST3 (human)) is reported as > 7000.

B1: DCC ECD-hFc-ST3 (Fc fusion, human, UniProt P43146 26-1097, looked up)
chain: HLQVTGFQIKAFTALRFLSEPSDAVTMRGGNVLLDCSAESDRGVPVIKWKKDGIHLALGMDERKQQLSNGSLLIQNILHSRHHKPDEGLYQCEASLGDSGSIISRTAKVAVAGPLRFLSQTESVTAFMGDTVLLKCEVIGEPMPTIHWQKNQQDLTPIPGDSRVVVLPSGALQISRLQPGDIGIYRCSARNPASSRTGNEAEVRILSDPGLHRQLYFLQRPSNVVAIEGKDAVLECCVSGYPPPSFTWLRGEEVIQLRSKKYSLLGGSNLLISNVTDDDSGMYTCVVTYKNENISASAELTVLVPPWFLNHPSNLYAYESMDIEFECTVSGKPVPTVNWMKNGDVVIPSDYFQIVGGSNLRILGVVKSDEGFYQCVAENEAGNAQTSAQLIVPKPAIPSSSVLPSAPRDVVPVLVSSRFVRLSWRPPAEAKGNIQTFTVFFSREGDNRERALNTTQPGSLQLTVGNLKPEAMYTFRVVAYNEWGPGESSQPIKVATQPELQVPGPVENLQAVSTSPTSILITWEPPAYANGPVQGYRLFCTEVSTGKEQNIEVDGLSYKLEGLKKFTEYSLRFLAYNRYGPGVSTDDITVVTLSDVPSAPPQNVSLEVVNSRSIKVSWLPPPSGTQNGFITGYKIRHRKTTRRGEMETLEPNNLWYLFTGLEKGSQYSFQVSAMTVNGTGPPSNWYTAETPENDLDESQVPDQPSSLHVRPQTNCIIMSWTPPLNPNIVVRGYIIGYGVGSPYAETVRVDSKQRYYSIERLESSSHYVISLKAFNNAGEGVPLYESATTRSITDPTDPVDYYPLLDDFPTSVPDLSTPMLPPVGVQAVALTHDAVRVSWADNSVPKNQKTSEVRLYTVRWRTSFSASAKYKSEDTTSLSYTATGLKPNTMYEFSVMVTKNRRSSTWSMTAHATTYEAAPTSAPKDLTVITREGKPRAVIVSWQPPLEANGKITAYILFYTLDKNIPIDDWIMETISGDRLTHQIMDLNLDTMYYFRIQARNSKGVGPLSDPILFRTLKVEHPDKMANDQGRHGDGGYWPVDTNLIDRSTLNEPPIGQMHPPHGSVTPQKNSN
notes: DCC (netrin receptor DCC), human, extracellular domain; Dimeric ECD-hFc-ST3 fusion behind the influenza HA signal peptide; prey on SC3-mi3 nanoparticles, bait on SC3 beads; source: Expi293, transfected, purified from supernatant (Ni-NTA / HisTrapFF); not shown: Fc (human IgG1, DAPA mutations), C-terminal, kept; FLAG, C-terminal, kept; SpyTag003, C-terminal, kept
For B1, the MFI (IGFBPL1-hFc-ST3) was > 7000.

B2: ILRL1 ECD-hFc-ST3 (Fc fusion, human, UniProt Q01638 19-328, looked up)
chain: KFSKQSWGLENEALIVRCPRQGKPSYTVDWYYSQTNKSIPTQERNRVFASGQLLKFLPAAVADSGIYTCIVRSPTFNRTGYANVTIYKKQSDCNVPDYLMYSTVSGSEKNSKIYCPTIDLYNWTAPLEWFKNCQALQGSRYRAHKSFLVIDNVMTEDAGDYTCKFIHNENGANYSVTATRSFTVKDEQGFSLFPVIGAPAQNEIKEVEIGKNANLTCSACFGKGTQFLAAVLWQLNGTKITDFGEPRIQQEEGQNQSFSNGLACLDMVLRIADVKEEDLLLQYDCLALNLHGLRRHTVRLSRKNPIDHHS
notes: The label ILRL1 is printed once only; Dimeric ECD-hFc-ST3 fusion behind the influenza HA signal peptide; prey on SC3-mi3 nanoparticles, bait on SC3 beads; source: Expi293, transfected, purified from supernatant (Ni-NTA / HisTrapFF); not shown: Fc (human IgG1, DAPA mutations), C-terminal, kept; FLAG, C-terminal, kept; SpyTag003, C-terminal, kept
With B2 the MFI (AXL ECD-hFc-ST3) was 5780.

B3: TIGIT ECD-hFc-ST3 (Fc fusion, human, UniProt Q495A1 22-141, looked up)
chain: MMTGTIETTGNISAEKGGSIILQCHLSSTTAQVTQVNWEQQDQLLAICNADLGWHISPSFKDRVAPGPGLGLTLQSLTVNDTGEYFCIYHTYPDGTYTGRIFLEVLESSVAEHGARFQIP
notes: TIGIT, human, extracellular domain; Dimeric ECD-hFc-ST3 fusion behind the influenza HA signal peptide; prey on SC3-mi3 nanoparticles, bait on SC3 beads; source: Expi293, transfected, purified from supernatant (Ni-NTA / HisTrapFF); not shown: Fc (human IgG1, DAPA mutations), C-terminal, kept; FLAG, C-terminal, kept; SpyTag003, C-terminal, kept
B3: binds (IL6R ECD-hFc-ST3).

B4: WFIKKN2-hFc-ST3 (Fc fusion)
chain: LPPIRYSHAGICPNDMNPNLWVDAQSTCRRECETDQECETYEKCCPNVCGTKSCVAARYMDVKGKKGPVGMPKEATCDHFMCLQQGSECDIWDGQPVCKCKDRCEKEPSFTCASDGLTYYNRCYMDAEACSKGITLAVVTCRYHFTWPNTSPPPPETTMHPTTASPETPELDMAAPALLNNPVHQSVTMGETVSFLCDVVGRPRPEITWEKQLEDRENVVMRPNHVRGNVVVTNIAQLVIYNAQLQDAGIYTCTARNVAGVLRADFPLSVVRGHQAAATSESSPNGTAFPAAECLKPPDSEDCGEEQTRWHFDAQANNCLTFTFGHCHRNLNHFETYEACMLACMSGPLAACSLPALQGPCKAYAPRWAYNSQTGQCQSFVYGGCEGNGNNFESREACEESCPFPRGNQRCRACKPRQKLVTSFCRSDFVILGRVSELTEEPDSGRALVTVDEVLKDEKMGLKFLGQEPLEVTLLHVDWACPCPNVTVSEMPLIIMGEVDGGMAMLRPDSFVGASSARRVRKLREVMHKKTCDVLKEFLGLH
B4 was tested, and the MFI [1] was > 7000.

Source: paper doi:10.1101/2025.07.09.663943, “A multiplex extracellular interactome screening method employing high-avidity nanoparticles” (bioRxiv, 2025)
